Consider 2 molecules from article doi:10.1101/789909 (bioRxiv, 2019).

Experiment [1] addresses purified DmsD (E. coli) (UniProt P69853). Nature of the experiment: SPR.
The target of experiment [2] is T1, EcTatBC with 6xHis tag (complex of TatB and TatC), purified (E. coli, UniProt P69425 1-171; P69423 1-258).
T1 sequence 1: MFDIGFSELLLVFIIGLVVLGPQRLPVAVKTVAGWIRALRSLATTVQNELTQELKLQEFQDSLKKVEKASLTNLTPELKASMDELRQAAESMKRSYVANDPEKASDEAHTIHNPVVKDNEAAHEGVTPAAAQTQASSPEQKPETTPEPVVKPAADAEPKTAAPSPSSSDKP
T1 sequence 2: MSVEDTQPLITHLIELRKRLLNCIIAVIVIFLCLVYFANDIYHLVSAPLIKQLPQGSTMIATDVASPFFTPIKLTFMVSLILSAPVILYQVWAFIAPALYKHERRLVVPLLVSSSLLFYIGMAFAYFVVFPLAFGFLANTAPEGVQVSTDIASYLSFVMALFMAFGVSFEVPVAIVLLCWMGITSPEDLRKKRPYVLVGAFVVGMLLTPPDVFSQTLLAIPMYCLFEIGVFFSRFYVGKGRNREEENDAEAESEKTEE
In words: SPR. Background: Surface plasmon resonance follows binding to a sensor surface in real time, without labels.

For “ssDmsA_45 (printed ssDmsD_45), truncated form of ssDmsA-GFP (domain or fragment)”, in experiment [1], the Kd (usually the equilibrium constant for the complex coming apart) was determined as 0.0559 µM.

B1: purified DmsD (natural protein)
chain: MTHFSQQDNFSVAARVLGALFYYAPESAEAAPLVAVLTSDGWETQWPLPEASLAPLVTAFQTQCEETHAQAWQRLFVGPWALPSPPWGSVWLDRESVLFGDSTLALRQWMREKGIQFEMKQNEPEDHFGSLLLMAAWLAENGRQTECEELLAWHLFPWSTRFLDVFIEKAEHPFYRALGELARLTLAQWQSQLLIPVAVKPLFR
As to B1, in experiment [2], the binding result is reported as “binds”.
